Substrate: CSCC[C@@H](N)C(=O)O
Test: D-Ala formation by UPLC-MS after derivatization; Hofstee linearization
Format: biochemical, Arabidopsis thaliana
Conditions: pyruvate 50 mM as amino acceptor, standard assay: potassium phosphate 100 mM pH 8, PLP 50 µM, 37 °C

B1: AtDAT1(Col-0) (Arabidopsis thaliana) (protein)
chain: MAGLSLEFTVNTWNLRSLSQVPCPLRHGFRFPRRLTRRRTILMCSDSSSQSWNVPVLSSYEVGERLKLARGGQQFLAMYSSVVDGITTDPAAMVLPLDDHMVHRGHGVFDTALIINGYLYELDQHLDRILRSASMAKIPLPFDRETIKRILIQTVSVSGCRDGSLRYWLSAGPGDFLLSPSQCLKPTLYAIVIKTNFAINPIGVKVVTSSIPIKPPEFATVKSVNYLPNVLSQMEAEAKGAYAGIWVCKDGFIAEGPNMNVAFVVNGGKELVMPRFDNVLSGCTAKRTLTLAEQLVSKGILKTVKVMDVTVEDGKKADEMMLIGSGIPIRPVIQWDEEFIGEGKEGPIAKALLDLLLEDMRSGPPSVRVLVPY
notes: N-terminal GST tag and C-terminal His tag (pGEX-2TM-GW); E. coli BL21(DE3) RIL; Ni-NTA purified
Work on B1 yielded a Km of 17.4 mM.
